B1: Twister Ribozyme (parent)
chain: AACACUGCCAAUGCCGGUCCCAAGCCCGGAUAAAAGUGGAGGGGGCGG

Variants of: B1
Assay: self-cleavage, relative activity (ratio to wild type); higher = more cleavage; co-transcriptional

Q: Which self-cleavage does the source give for AACACUGCCAUUGCCGGUCCCAAGCCCCGAUAAAAGUGGAGGGGGCGG here?
A: 0.801

Q: For AACACUGCCAAAGCCGGUCCCAAACCCGGAUAAAAGUGGAGGGGGCGG, which self-cleavage is on record?
A: 0.103

Q: With AACACUGCCAUUGCCGGUCCCAAGCCCGGAUAAAAGUGAAGGGGGCGG as the variant, how does the self-cleavage read?
A: 0.63

Q: Which self-cleavage does the source give for AACACUGCCAAAGCCGAUCCCAAGCCCGGAUAAAAGUGGAGGGGGCGG here?
A: 0.85

Q: Which self-cleavage does the source give for AACACUGCCAAAGCCGUUCCCAAGCCCGGAUAAAAGUGGAGGGGGCGG here?
A: 0.41

Q: For AACACUGCCAUUGCCGGUCCCAAGCCCGGAUAAAAGUGGAGGGGGCGG, which self-cleavage is on record?
A: 1.04

Q: Which self-cleavage does the source give for AACACUGCCAGUGCCGGUCCCAAGCCCGCAUAAAAGUGGAGGGGGCGG here?
A: 0.679

Q: With AACACUGCCAUUGCCGGUCCCAAGCGCGGAUAAAAGUGGAGGGGGCGG as the variant, how does the self-cleavage read?
A: 0.31

Q: Which self-cleavage does the source give for AACACUGCCAUUGCCGGUCCCAAGCACGGAUAAAAGUGGAGGGGGCGG here?
A: 0.674

Q: For AACACUGCCAAAGCCUGUCCCAAGCCCGGAUAAAAGUGGAGGGGGCGG, which self-cleavage is on record?
A: 1.09

Q: For AACACUGCCAAAGCCAGUCCCAAGCCCGGAUAAAAGUGGAGGGGGCGG, which self-cleavage is on record?
A: 1.03

Q: With AACACUGCCAUUGUCGGUCCCAAGCCCGGAUAAAAGUGGAGGGGGCGG as the variant, how does the self-cleavage read?
A: 1.13

Q: Which self-cleavage does the source give for AACACUGCCAUUGACGGUCCCAAGCCCGGAUAAAAGUGGAGGGGGCGG here?
A: 0.915

Q: For AACACUGCCAGUGCCGGUCCCAAGCCCGGAUAAAAGUGGAGGGGACGG, which self-cleavage is on record?
A: 0.811

Q: With AACACUGCCAGUGCCGGUCCCAAGCCCGGAUAAAAGUGGAGGGGUCGG as the variant, how does the self-cleavage read?
A: 0.567

Q: For AACACUGCCAUUGCCGGUCCCAAGCCCGGAUCAAAGUGGAGGGGGCGG, which self-cleavage is on record?
A: 0.926

Q: For AACACUGCCAGUGCCGGUCCCAAGCCCGGAUAAAAGUGGAGGUGGCGG, which self-cleavage is on record?
A: 0.374

Q: With AACACUGCCAAAGCCGGUCCCAAGUCCGGAUAAAAGUGGAGGGGGCGG as the variant, how does the self-cleavage read?
A: 0.947

Q: Which self-cleavage does the source give for AACACUGCCAAAGCCGGUCCCAAGACCGGAUAAAAGUGGAGGGGGCGG here?
A: 0.15

Q: For AACACUGCCAUUGCCGGUCCCAAGCCCGGAUAAAAAUGGAGGGGGCGG, which self-cleavage is on record?
A: 0.559

Q: For AACACUGCCAGUGCCGGUCCCAAGCCCGGAUAAAAGUGGAAGGGGCGG, which self-cleavage is on record?
A: 0.505

Q: With AACACUGCCAGUGCCGGUCCCAAGCCCGGAUAAAAGUGGAUGGGGCGG as the variant, how does the self-cleavage read?
A: 0.65

Q: With AACACUGCCAUUGCCGGUCCCAAGCCCGGACAAAAGUGGAGGGGGCGG as the variant, how does the self-cleavage read?
A: 1.04

Q: Which self-cleavage does the source give for AACACUGCCAUUGCCGGUCGCAAGCCCGGAUAAAAGUGGAGGGGGCGG here?
A: 0.17

Q: With AACACUGCCAUUGCCGGUCUCAAGCCCGGAUAAAAGUGGAGGGGGCGG as the variant, how does the self-cleavage read?
A: 1.08

Q: For AACACUGCCAUUGCCGGUCCCAAGGCCGGAUAAAAGUGGAGGGGGCGG, which self-cleavage is on record?
A: 0.501

Q: Which self-cleavage does the source give for AACACUGCCAUUGCCUGUCCCAAGCCCGGAUAAAAGUGGAGGGGGCGG here?
A: 0.544

Q: With AACACUGCCAUUACCGGUCCCAAGCCCGGAUAAAAGUGGAGGGGGCGG as the variant, how does the self-cleavage read?
A: 0.95

Q: With AACACUGCCAUUUCCGGUCCCAAGCCCGGAUAAAAGUGGAGGGGGCGG as the variant, how does the self-cleavage read?
A: 0.694

Q: For AACACUGCCAUUGCCGGUCCUAAGCCCGGAUAAAAGUGGAGGGGGCGG, which self-cleavage is on record?
A: 0.0941

Q: For AACACUGCCAUUGCCGGUCCCAAGCCCGGAUAAAAGUGGAUGGGGCGG, which self-cleavage is on record?
A: 0.889

Q: Which self-cleavage does the source give for AACACUGCCAAAGCUGGUCCCAAGCCCGGAUAAAAGUGGAGGGGGCGG here?
A: 1.1

Q: With AACACUGCCAAAGUCGGUCCCAAGCCCGGAUAAAAGUGGAGGGGGCGG as the variant, how does the self-cleavage read?
A: 1.05

Q: Which self-cleavage does the source give for AACACUGCCAUUGCCGGUCCCAAGCCCGGAUAAAAGUGGAGGGCGCGG here?
A: 0.969

Q: With AACACUGCCAUUGCCGGUCCCAAGCCCGGAUAAAAGUGGAGGGUGCGG as the variant, how does the self-cleavage read?
A: 1.07

Q: With AACACUGCCAAAGCCGGUCCAAAGCCCGGAUAAAAGUGGAGGGGGCGG as the variant, how does the self-cleavage read?
A: 0.152

Q: Which self-cleavage does the source give for AACACUGCCAAAGCCGGUCCCAAGCCGGGAUAAAAGUGGAGGGGGCGG here?
A: 0.138

Q: For AACACUGCCAAAGCCGGUCCCAAGCCCGGAUAAAAGUGGUGGGGGCGG, which self-cleavage is on record?
A: 0.192

Q: With AACACUGCCAAAGCCGGUCCCAAGCCCGGAUAAAAGUGGGGGGGGCGG as the variant, how does the self-cleavage read?
A: 0.136

Q: With AACACUGCCAGUGCCGGUCCCAAGCCCGGAUAAAAGUGGAGGGGGCGU as the variant, how does the self-cleavage read?
A: 0.942

Q: Which self-cleavage does the source give for AACACUGCCAUUGCCGGUGCCAAGCCCGGAUAAAAGUGGAGGGGGCGG here?
A: 0.616

Q: Which self-cleavage does the source give for AACACUGCCAUUGCCGGUUCCAAGCCCGGAUAAAAGUGGAGGGGGCGG here?
A: 0.933

Q: With AACACUGCCAUUGCCGGUACCAAGCCCGGAUAAAAGUGGAGGGGGCGG as the variant, how does the self-cleavage read?
A: 0.386

Q: For AACACUGCCAUUGCCGGUCCCAAGCCCGGAUAAAAGUGGAGGUGGCGG, which self-cleavage is on record?
A: 0.606

Q: Which self-cleavage does the source give for AACACUGCCAUUGCCGGUCCCAAGCCCGGAUAAAAGUGGAGGAGGCGG here?
A: 0.336

Q: For AACACUGCCAUGGCCGGUCCCAAGCCCGGAUAAAAGUGGAGGGGGCGG, which self-cleavage is on record?
A: 1.05

Q: Which self-cleavage does the source give for AACACUGCCAAAGCCGGUCCCAAGCCCGGCUAAAAGUGGAGGGGGCGG here?
A: 0.893

Q: With AACACUGCCAAAGCCGGUCCCAAGCCCGGUUAAAAGUGGAGGGGGCGG as the variant, how does the self-cleavage read?
A: 1.15

Q: For AACACUGCCAUUGCCGGUCCCAAGCCCGGAUAAAAGUGGAGGGGGAGG, which self-cleavage is on record?
A: 0.93

Q: Which self-cleavage does the source give for AACACUGCCAUUGCCGGUCCCAAGCCCGGAUAACAGUGGAGGGGGCGG here?
A: 0.365

Q: Which self-cleavage does the source give for AACACUGCCAAAUCCGGUCCCAAGCCCGGAUAAAAGUGGAGGGGGCGG here?
A: 0.577

Q: For AACACUGCCAGUGCCGGGCCCAAGCCCGGAUAAAAGUGGAGGGGGCGG, which self-cleavage is on record?
A: 0.0264

Q: Which self-cleavage does the source give for AACACUGCCAUUGCCGGUCCCAAGCCCGGAUAAAAGUGGAGGGGGCCG here?
A: 0.624

Q: Which self-cleavage does the source give for AACACUGCCAUUGCCGGUCCCAAGCCCGGAUAAAAGUGGAGGGGGCUG here?
A: 0.98
